Results reported in publication PMC11662662.

Biological target: H3K23ub mononucleosomes (H3 'K23ub' thioether mimic), P68431;P0CG48;P04908;O60814;P62805
Assay: Alpha-screen proximity assay

recombinant DNMT1 RFTS domain WT (His-MBP-RFTS) (from UniProt P26358) P378A; L381A
Kd: 140 nM
